Results published in patent publication US20100256217A1 (University of Pennsylvania, published 2010).

Molecular target: T1, human CK2β subunit, cloned from HeLa cell cDNA (pcCK2β) (human, UniProt P67870 1-215)
T1 construct: 35S-labeled in vitro translated protein in the in vitro assay; Expressed in transfected 293T cells in the in vivo assay; also called CKβ; CK2 beta
Assay: in vitro binding assay, 35S-labeled in vitro translated proteins, co-immunoprecipitation with anti-His or anti-CK2β, autoradiography

T1 sequence (P67870 whole entry): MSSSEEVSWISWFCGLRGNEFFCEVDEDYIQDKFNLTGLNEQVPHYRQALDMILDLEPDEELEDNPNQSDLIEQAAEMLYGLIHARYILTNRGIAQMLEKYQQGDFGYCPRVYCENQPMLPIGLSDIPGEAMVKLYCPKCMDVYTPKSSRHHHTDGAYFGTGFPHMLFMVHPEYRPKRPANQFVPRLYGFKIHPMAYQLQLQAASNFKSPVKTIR

B1: West Nile virus capsid protein with a C-terminal polyhistidine tag, encoded by pcWNV C-His (other)
chain: MSKKPGGPGKSRAVNMLKRGMPRVLSLIGLKRAMLSLIDGKGPIRFVLALLAFFRFTAIAPTRAVLDRWRGVNKQTAMKHLLSFKKELGTLTSAINRRSSKQKKRGGKTGIAVMIGLIASVGA
notes: The capsid is its N-terminal part; also called WNV Cp; protein C; not shown: C-terminal polyhistidine tag from the pcDNA3.1 V5/HisA vector
binding result: no binding
